The target in the assay is LDL receptor (UniProt P01130). The assay is described as follows: cell-based or functional assay.
LDL receptor, sequence (P01130 22-860 limits assumed): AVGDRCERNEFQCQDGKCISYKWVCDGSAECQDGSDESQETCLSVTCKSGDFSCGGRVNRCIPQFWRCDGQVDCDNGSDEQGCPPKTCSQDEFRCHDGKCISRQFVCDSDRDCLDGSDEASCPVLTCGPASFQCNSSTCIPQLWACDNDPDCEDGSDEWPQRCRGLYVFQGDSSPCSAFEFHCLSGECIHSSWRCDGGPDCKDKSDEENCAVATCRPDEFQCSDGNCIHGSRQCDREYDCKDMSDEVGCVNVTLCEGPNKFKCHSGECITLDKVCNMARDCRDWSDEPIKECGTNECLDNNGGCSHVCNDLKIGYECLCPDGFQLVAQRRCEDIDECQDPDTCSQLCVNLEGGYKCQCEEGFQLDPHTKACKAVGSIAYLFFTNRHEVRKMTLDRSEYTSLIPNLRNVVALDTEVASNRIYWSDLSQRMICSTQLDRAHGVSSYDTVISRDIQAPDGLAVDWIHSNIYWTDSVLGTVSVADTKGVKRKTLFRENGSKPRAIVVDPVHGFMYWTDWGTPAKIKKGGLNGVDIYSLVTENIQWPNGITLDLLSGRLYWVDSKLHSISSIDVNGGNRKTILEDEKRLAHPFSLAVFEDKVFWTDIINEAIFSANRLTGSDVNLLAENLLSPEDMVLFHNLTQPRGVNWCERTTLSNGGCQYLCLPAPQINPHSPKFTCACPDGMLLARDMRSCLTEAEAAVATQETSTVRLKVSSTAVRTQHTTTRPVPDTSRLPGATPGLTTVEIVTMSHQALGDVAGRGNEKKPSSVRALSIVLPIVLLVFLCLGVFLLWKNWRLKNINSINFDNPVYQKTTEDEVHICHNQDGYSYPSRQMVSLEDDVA

In turn, “distearyl-glycyl-apoE-3^129-169(Q142) (peptide)” returned an expression (transfection of 293 epithelial cells with peptide:DNA complexes), relative to wild-type apoE peptide complexes (% of wild-type apoE peptide complexes) of 5.
